In paper PMC6948101 (Nature, 2019):

Biological target: the molecule itself
Test: SEC-MALS

B1: DHR10-mica6-NC (designed binder)
chain: GSGGSSEVLELAIRLIKEVVENAQREGYDISEAAAAAAEAFAAVAEAAKAAGITSSEVLELAIRLIKEVVENAQREGYDISEAAAAAAEAFAAVAEAAKAAGITSSEVLELAIRLIKEVVENAQREGYDISEAAAAAAEAFAAVAEAAKAAGIASSEVLELAIRLIKEVVENAQREGYDISEAAAAAAEAFAAVAEAAKAAGITSSEVLELAIRLIKEVVENAQREGYDISEAAAAAAEAFAAVAEAAKAAGIASSEVLELAIRLIKEVVENAQREGYDISEAAAAAAEAFAAVAEAAKAAGIGWE
B1 was tested, and the “stoichiometry N” value was 2.1 times the MW of a monomer.
